According to article PMC4857094:

Key:
[1] = biological target: circularly permutated RBD of PKN1 (PKN1-WT) in the RhoA/B/C FRET sensors; assay: FRET or BRET; intramolecular single-chain sensor (PKN1 RBD, mVenus, Cerulean3, RhoGTPase); average basal YFP/CFP ratio in resting live primary human EC (HUVEC), 18 hours after microporation
[2] = biological target: circularly permutated RBD of PKN1 (PKN1-WT) in the RhoA/B/C FRET sensors; assay: FRET or BRET; intramolecular single-chain sensor (PKN1 RBD, mVenus, Cerulean3, RhoGTPase); normalized mean YFP/CFP ratio change of whole live HUVEC after Thrombin (1 U/ml) at t = 110 sec

| Substance | basal YFP/CFP ratio [1] | mean maximal FRET ratio change after Thrombin [2] [%] |
| --- | --- | --- |
| RhoB-G14V in the RhoB FRET sensor (from UniProt P62745 1-196) (natural protein) | 6.5 |  |
| RhoB-WT in the RhoB FRET sensor (from UniProt P62745 1-196) (natural protein) |  | 122 |
| RhoC-G14V in the RhoC FRET sensor (from UniProt P08134 1-193) (natural protein) | 6.2 |  |
| RhoC-Q63L in the RhoC FRET sensor (from UniProt P08134 1-193) (natural protein) | 6.8 |  |
| RhoC-WT in the RhoC FRET sensor (from UniProt P08134 1-193) (natural protein) |  | 42 |

Results, then the substance that gave them:

| basal YFP/CFP ratio [1] | mean maximal FRET ratio change after Thrombin [2] [%] | Substance |
| --- | --- | --- |
| 8.1 |  | RhoA-Q63L in the RhoA FRET sensor (from UniProt P61586 1-193) (natural protein) |
|  | 32 | RhoA-WT in the RhoA FRET sensor (from UniProt P61586 1-193) (natural protein) |
